# Laboratory results published in patent US20260258115A1 (MAPP BIOPHARMACEUTICAL, published 2026).
# Numbering of substitutions follows the chain as printed.
# B1: ADI-22779 (antibody, V domains shown)
# VH: QVQLQQWGAGLLKPSETLSLTCAVYGGSFSDYSWTWIRQPPGKGLEWIGEISHTGITNYNPSLKSRVNISVDTSKNQFSLKLSSVTAADTAVYYCARADAYDSSGYYVYYFDYWGQGTLVTVSS
# VL: DIQVTQSPPSLSASVGDRVTITCRASQTIASYLNWYHQKPGKAPELLIYAASSLQSGVPSRFSGSGSGTAFTLTISSLQPEDFATYYCQQSYSAPPSFGQGTKVEIK
# notes: full-length IgG
# B2: ADI-14348 (antibody, V domains shown)
# VH: QVQLVESGGGVAQPGGSLRLSCVASGFTFSNYGMHWVRQAPGKGLEWVAFIRSDGSKKYYGDSGKGRFTISRDNSKNTLYLQMNSLRAEDTALYYCARERAGATFAFDIWGQGTTVTVSS
# VL: QSALTQPRSVSGSPGQSVTISCTGTSSDVGGYNFVSWYQHHPGKAPKLMIYDVTNRPSGVPDRFSGSKSGNTASLTISGLQADDEADYYCCSYAGGFTFYVFGTGTKVTVL
# notes: full-length IgG; also called Ab 16
# B3: ADI-22775 (antibody, V domains shown)
# VH: EVQLLESGGGVVQPGRSLRLSCAASGFTFSDYGMHWVRQAPGKGLEWVAVIWYDGSYKYYADSVKGRFTISRDNSKNTLFLQMNSLRAEDTAVYYCARESLQTHDAFDIWGQGTMVTVSS
# VL: DIQMTQSPSSLSASVGDRVTITCRASQGISNSLAWYQQKPGKAPKLLLYAASRLESGVPSRFSGSGSGTDYTLTINSLQPEDFATYFCQQYYSTLTWTFGQGTKVDIK
# notes: full-length IgG
# B4: ADI-19485 (antibody, V domains shown)
# VH: QVQLQESGPGLVKPSQTLSLSCTVSGGSISSTNYYWTWIRQHPGKGLEWIGFIYNRGSTYYNPSLTSRVTISVDTSKNQFSLKLTSVTAADTAVYYCARAPYYYDRNGYYTAFDIWGQGTTVTVSS
# VL: EIVLTQSPATLSVSPGERATLSCRASQSVSSNLAWYQQKPGQAPRLLIYDASTRATDIPARFSGGGSGTEFTLTISSLQSEDFAVYYCQQYNNWPRTFGLGTKVDIK
# notes: full-length IgG
# B5: ADI-14359 (antibody, V domains shown)
# VH: QVQLVQSGPALVKPTQTLTLTCTFSGFSLSTSGMCVSWIRQPPGKALEWLARIDWDDDKYYSTSLKTRLTISKDTSKNQVVLTMTNMDPVDTATYYCARATNYDSSGYYSLYFDYWGQGTLVTVSS
# VL: not shown
# notes: full-length IgG; also called Ab 27
# B6: ADI-22768 (antibody, V domains shown)
# VH: EVQLVESGGGLVQPGGSLRLSCAASGFTFSSYEMNWVRQAPGKGLEWVSYISSSGSTIYYADSVKGRFTISRDNAKNSLYLQMNSLRAEDTAVYYCAKSYIYDSSGYYLYYFDYWGQGTLVTVSS
# VL: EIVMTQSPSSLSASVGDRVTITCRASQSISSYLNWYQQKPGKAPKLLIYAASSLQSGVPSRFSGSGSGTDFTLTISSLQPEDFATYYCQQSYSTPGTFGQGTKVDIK
# notes: full-length IgG
# B7: ADI-24818 (antibody, V domains shown)
# VH: not shown
# VL: QPVLTQPASVSGSPGQSITISCTGTSSDVGGYNYVSWYQQHPGKAPKLMIYDVSNRPSGVSNRFSGSKSGNTASLTISGLQAEDEADYYCSSYTSSSTLVFGGGTQLTVL
# notes: full-length IgG; also called Ab 380
# B8: ADI-14343 (antibody, V domains shown)
# VH: QVQLVQSGAEVKKPGSSVKVSCKASGGTFSSYGVNWVRQAPGQGLEWMGRIIPMFGTSNYAQKFQGRVTITADGSTSTAYMELSSLRSEDTAVYYCARVGSPTTGAIMGVWGQGTTVTVSS
# VL: DIVLTQTPLSLPVTPGEPASISCRSSQSLLQSNGFNYLDWYLQKPGQSPKLLIYMGSNRASGVPDRFSGSGSGTDFTLIISRVEAEDVGVYYCMQAIESPLTFGGGTKVDIK
# notes: full-length IgG; also called Ab 11
# B9: ADI-14382 (antibody, V domains shown)
# VH: EVQLLESGGGVVQPGRSLRLSCAASGFTFSAYGFHWVRQAPGKGLEWVAVIWFDGNNKYYADSMKGRFIISRDNSKNTLYLQMNSLRAEDTAVYYCARDPKETGEFDYWGQGTLVTVSS
# VL: QSALTQPASVSGSPGQSITISCTGTISDVGRYNYVSWYQQHPGKAPKLMIYDVTNRPSGVSNRFSGSKSGNTASLTISGLQAEDEAVYYCCSYTISSTYVFGTGTKLTVL
# notes: full-length IgG; also called Ab 50
# B10: ADI-24808 (antibody, V domains shown)
# VH: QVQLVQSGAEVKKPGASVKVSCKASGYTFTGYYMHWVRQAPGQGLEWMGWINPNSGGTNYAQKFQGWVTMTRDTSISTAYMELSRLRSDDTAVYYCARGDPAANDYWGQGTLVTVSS
# VL: QPVLTQPPSASGSPGQSVTISCTGTSSDVGGYNYVSWYQQHPGKAPKLMIYEVSKRPSGVPDRFSGSKSGNTASLTVSGLQAEDEADYYCSSYAGSNNVVFGGGTKLTVL
# notes: full-length IgG
# B11: ADI-24851 (antibody, V domains shown)
# VH: not shown
# VL: B10 VL with P2S, T5I
# notes: full-length IgG
# B12: ADI-41537 (antibody, V domains shown)
# VH: EVQLLESGGGLVQPGGSLRLSCAASEFTFSRYPMSWVRQAPGKGLEWVSGISVSGDSTYYADSVKGRLTISRDNSKNTLYLQMNSLRAEDTAVYYCAIDHYDTSGYYGMDVWGQGTTVTVSS
# VL: DIRLTQSPLSLPVTPGEPASISCRSSRSLLRSNGYNYLDWYLQKPGQSPQLLIYLGSNRASGVPDRFSGSGSGTDFTLKISRVEAEDVGVYYCMQALQSSYTFGQGTKLEIK
# B13: ADI-41541 (antibody, V domains shown)
# VH: QITLKESGPTLVKPTQTLTLTCTFSGFSLSSSGVGVGWIRQPPGKALEWLALIYWDDDKRYSPSLKSRLTITKDTSKNQVVLTMTNMDPVDTATYYCAHRGPYYYDMSGYYYEAFDIWGQGTTVTVSS
# VL: SYELMQPPSVSVAPGQTARITCGGNNIGSKGVHWYQQKPGQAPVLVVYDDNDRPSGIPERFSGSNSGNTATLTISRVEAGDEADYYCQVWDSSSDHHYVFGTGTKVTVL
# notes: also called Ab 813; Antibody Number 813
# B14: ADI-41548 (antibody, V domains shown)
# VH: QVQLQQWGPGLVKPSETLSLTCTVSGASITSHYWSWLRQPAGKGLEWIGRFYPSGTTEKTPSLKSRVTLSVDTSKNHFSLKLTSVTAADTAVYYCARDSYDDIAGSYEYYFADWGQGTLVTVSS
# VL: B4 VL with A51I, D57G, I58V, G65S, S76T, A84T, R96P, L100Q, V104L, D105E
# notes: also called Ab 820; Antibody Number 820
# B15: ADI-41551 (antibody, V domains shown)
# VH: QVQLQESGGGVVQPGGSLRLSCAASGFTFSRHWMHWVRQVPGKGLVWVSRINSDESTIDYADSVKGRFTISRDNAKNTLYLQMNSLRAEDTAVYYCVRDMVAVPGTTGGDYWGQGTLVTVSS
# VL: SYELTQPPSVSVSPGQTADITCSGDKLGDKYACWYQQRAGQSPILVLYQDTRRPSGIPERFSGSNSGDTATLTISGTQAMDEADYYCQAWDSSTAWVFGGGTKLTVL
# notes: also called Ab 823; Antibody Number 823
# B16: ADI-41538 (antibody, V domains shown)
# VH: EVQLVESGGGLVKPGGSLRLSCAASGFTLSTYGVNWVRQAPGKGLEWVSSISSSGNNIHYADSVKGRFTVFRDNAKHSMYLQMNSLRAEDTAVYYCARSLDYSNYYYYYGLDVWGQGTTVTVSS
# VL: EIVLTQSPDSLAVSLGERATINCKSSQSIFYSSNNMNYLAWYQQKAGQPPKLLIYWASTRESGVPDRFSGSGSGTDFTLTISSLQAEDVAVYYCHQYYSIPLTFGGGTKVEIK
# notes: also called Ab 810; Antibody Number 810
# B17: ADI-41543 (antibody, V domains shown)
# VH: QVQLVQSGAEVKKPGASVRVSCKASGYTLTGYYIHWLRQAPGQGLEWVGRINPNTGETSYSQKFQGRVIMTRDTSVSTAYVDLSRLRSRDTAVYFCARSDVMITVTAEGDFSYYYYRFDVWGQGTTVTVSS
# VL: DIVMTQTPLSLPVTPGEPASISCRSSQSLLHSNGHNYLDWYLQKPGQSPQLLIYLGSIRASGVSDRFSGSGSGTDFTLKISRVEAEDVGIYYCMQALQTPHFGGGTKVEIK
# B18: ADI-41540 (antibody, V domains shown)
# VH: QVQLQQWGAGLLKPSETLSLTCGVYGGSFTGYQWSWIRQSPGKGLEWIGDIDHGGNTNYRPSLKSRIITSVNMSKKEFSLKLASVTAADTAVYYCARGVGFLEFSGGPTGRRRNWFDSWGQGTLVTVSS
# VL: DIQLTQSPGTLSLSPGEGATLSCRASQSVGGSYLAWYQQRPGQAPRLLIYGASNRAADSPDRFSGSGSATDFTLTISRLEPEDFAVYYCQQYGSSPWTFGQGTKVEIK
# B19: ADI-41539 (antibody, V domains shown)
# VH: QVQLVESGAEVKKPGASVKVSCKASGYNFIDYGISWVRQAPGQGLEWVGWISAYNGNTNYAQKLQGRVTMTTDTSTNTAYMELRSLRSDDTALYYCARDSSSLHPTYYYYYPMDVWGQGTTVTVSS
# VL: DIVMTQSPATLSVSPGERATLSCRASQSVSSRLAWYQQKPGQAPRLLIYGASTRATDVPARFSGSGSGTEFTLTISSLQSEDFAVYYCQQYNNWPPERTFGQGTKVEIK
# B20: ADI-41549 (antibody, V domains shown)
# VH: EVQLLESGGGVVQPGGSLRLSCAASGFTFSGYGMHWVRQAPGKGLEWVAFIQYNGSNKYYADSVKGRFTISRDNSKNTLYVQLNSLRAEDTAVYYCATDILVVPAATPLISYYFGMDVWGQGTTVTVSS
# VL: B9 VL with I26S, R31G, H41Y, D52E, V87D, I95S, S96T, S97N, Y99R, L107V
# notes: also called Ab 821; Antibody Number 821
# B21: ADI-41547 (antibody, V domains shown)
# VH: QVQLVQSGAEVKKPGSSVKVSCKASGGSFSSNTINWVRQAPGQGLEWMGGIIPVFETPNYAQKFQGRVSFTADESTRTAYMELSSLRSEDTAVYFCARQGMSYYDTNGNYYVGWFDTWGQGTLVTVSS
# VL: EIVLTQSPGTLSLSPGERATLSCRASQSLNNNYLAWYQRKPGQAPRLLIYGAGAFSRATGIPDRFSGSGSGTDFTLTISRLEPEDFALYYCQQYGSSPLTFGQGTRLEIK
# notes: also called Ab 819; Antibody Number 819
# B22: ADI-41545 (antibody, V domains shown)
# VH: QVQLVESGPGLVKPSETLSLTCTVSGGSISRYYWSWIRQSPGKGLEWIGYIYHSVITNYNPSLKSRVTISIDMSKNQFSLKLSSVTAADTAVYYCASRPLINGYGPDNYFDYWGQGTLVTVSS
# VL: SYVLTQPPSVSVAPGQTARITCGGNNIGSKSVHWYQRKPGQAPVLVVYDDSDRPSGIPERFSGSNSGNTATLTIIRVEAGDEADYYCQVWDNSSDHPVFGGGTKLTVL
# notes: also called Ab 817; Antibody Number 817
# Biological target: T1, RSV postfusion F (postF), subtype A (respiratory syncytial virus subtype A, UniProt P03420 26-513)
# T1 construct: also called Postfusion subtype A; F deltaFP
# Test: BLI, IgG
row,Binder,Kd [nM]
1,B1,6.2
2,B2,5.66
3,B3,30
4,B4,0.251
5,B5,4.11
6,B6,3.41
7,B7,6.47
8,B8,2.94
9,B9,0.846
10,B10,10.8
11,B11,20.9

# Biological target: T2, RSV prefusion F (preF), subtype B (respiratory syncytial virus subtype B)
# T2 construct: also called Prefusion subtype B
# Test: BLI, IgG
row,Binder,Kd [nM]
1,B2,110
2,B5,34.6
3,B6,4.57
4,B8,38.1

# Biological target: RSV F on RSV-A2 virus (Respiratory Syncytial Virus (RSV-A2), UniProt P03420 26-574)
# Test: cell-based or functional assay
row,Binder,Neutralization IC50 (RSV subtype A) [µg/mL]
1,B12,> 25
2,B13,> 25
3,B14,> 25
4,B15,> 25
5,B16,> 25
6,B17,> 25
7,B18,> 25
8,B19,0.18
9,B20,> 25
10,B21,0.05
11,B22,> 25

# Biological target: RSV prefusion F (preF), DS-Cav1 (Respiratory Syncytial Virus, UniProt P03420 26-513)
# Test: BLI, IgG on anti-human IgG sensor, 100 nM antigen, 1:1 fit
row,Binder,Kd [nM]
1,B12,2.58
2,B13,2.47
3,B14,2.56
4,B15,13
5,B16,3.44
6,B17,2.9
7,B18,3.54
8,B19,3.38
9,B20,0.408
10,B21,3.19
11,B22,1.36

# Biological target: RSV postfusion F (postF), F ΔFP (Respiratory Syncytial Virus, UniProt P03420 26-513)
# Test: as above
row,Binder,Kd [nM]
1,B12,0.488
2,B13,0.776
3,B14,1.45
4,B15,23.8
5,B16,0.587
6,B17,0.796
7,B18,0.686
8,B19,0.615
9,B20,1.56
10,B21,1.08
11,B22,0.825
